The text below walks through data of patent US20200024320A1 (published 2020).

Where no end group is shown, it is not given here.

T1: MBP-RAMP2 ECD [L106R]-(GS)5-CLR ECD-H6 fusion protein (human, UniProt O60895 43-143; Q16602 29-144)
T1 chain: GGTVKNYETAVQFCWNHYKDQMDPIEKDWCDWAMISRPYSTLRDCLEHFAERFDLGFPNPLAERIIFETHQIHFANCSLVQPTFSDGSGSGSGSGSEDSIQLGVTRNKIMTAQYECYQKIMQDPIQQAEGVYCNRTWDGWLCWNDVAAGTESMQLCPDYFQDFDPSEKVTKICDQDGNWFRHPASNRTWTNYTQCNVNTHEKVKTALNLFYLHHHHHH

B1: AM(37-52)NH2 [K46L, Q50W] (peptide)
peptide: DKDNVAPRSLISPWGY-NH2
B2: AM(37-52)NH2 [S45W, K46L, Q50W, Y52F] (peptide)
peptide: DKDNVAPRWLISPWGF-NH2
B3: AM(37-52)NH2 [S45W, K46M, Q50W, Y52F] (peptide)
peptide: DKDNVAPRWMISPWGF-NH2
B4: AM(37-52)NH2 [K46L, Q50W, Y52F] (peptide)
peptide: DKDNVAPRSLISPWGF-NH2
B5: AM(37-52)NH2[S45T, K46L, Q50W] (peptide)
peptide: DKDNVAPRTLISPWGY-NH2
B6: AM(37-52)NH2 (peptide)
peptide: DKDNVAPRSKISPQGY-NH2
notes: also called WT (AM(37-52)NH2 scaffold)
B7: AM(37-52)NH2 [S45W, K46W, Q50W, Y52F] (peptide)
peptide: DKDNVAPRWWISPWGF-NH2
B8: AM(37-52)NH2 [D39K] (peptide)
peptide: DKKNVAPRSKISPQGY-NH2
B9: AM(37-52)NH2 [D39F, K46L, Q50W, Y52F] (peptide)
peptide: DKFNVAPRSLISPWGF-NH2
B10: AM(37-52)NH2 [S45W, Q50W] (peptide)
peptide: DKDNVAPRWKISPWGY-NH2
notes: also called S45W/Q50W double mutant
B11: AM(37-52)NH2[S45T, K46W, Q50W] (peptide)
peptide: DKDNVAPRTWISPWGY-NH2
B12: AM(37-52)NH2 [D39F, K46L, Q50W] (peptide)
peptide: DKFNVAPRSLISPWGY-NH2
B13: AM(37-52)NH2 [Q50W] (peptide)
peptide: DKDNVAPRSKISPWGY-NH2
B14: AM(37-52)NH2 [Q50F] (peptide)
peptide: DKDNVAPRSKISPFGY-NH2
B15: CGRP(27-37)NH2 [N31D, S34P, K35W, A36S] (peptide)
peptide: FVPTDVGPWSF-NH2
B16: CGRP(27-37)NH2 [N31D, V32T, S34P, K35W, A36S] (peptide)
peptide: FVPTDTGPWSF-NH2
B17: CGRP(27-37)NH2 [N31D, S34P, K35W, A36S, F37Y] (peptide)
peptide: FVPTDVGPWSY-NH2
B18: CGRP(27-37)NH2 [N31D, V32T, S34P, K35W, A36G, F37Y] (peptide)
peptide: FVPTDTGPWGY-NH2
B19: AM(37-52)NH2 [S45W, K46L, S48G, Q50W, Y52F] (peptide)
peptide: DKDNVAPRWLIGPWGF-NH2

For the first experiment, the target named is T1, MBP-RAMP2 ECD [L106R]-(GS)5-CLR ECD-H6 …. Kind of experiment: FP competition, FITC-AM W/W probe, RAMP2-CLR ECD.
For B1, the Ki was found to be 1.66 µM and the pKI worked out at 5.78.

B2: the affinity, expressed as Ki, was 4.07 µM and the pKI came out at 5.39.

Molecule B3 yielded a Ki of 7.76 µM and a pKI of 5.11.

On to B4, for which the inhibition constant (Ki) stood at 89.1 µM and the pKI was determined as 4.05.

Regarding B5, affinity was put at a Ki of 1.57 µM and the pKI was 5.8.

Take B6: the affinity corresponds to a Ki of 20.4 µM and the pKI came out at 4.69.

As for B7, the inhibitory constant (Ki) worked out at 16.6 µM and the pKI is 4.78.

Turning to B8, the affinity corresponds to a Ki of 6.1 µM and the pKI came to 5.22.

The molecule B9 registered a Ki of 30.3 µM and a pKI of 4.55.

Turning to B10, the inhibitory constant (Ki) turned out to be 0.0813 µM and the pKI turned out to be 7.09.

In the case of B11, the Ki worked out at 12.5 µM and the pKI is 4.9.

For B12, the affinity, expressed as Ki, was 1.83 µM and the pKI is 5.74.

Molecule B13 returned an inhibition constant (Ki) of 0.316 µM and a pKI of 6.5.

On to B14, for which the affinity, expressed as Ki, was 2.14 µM and the pKI came out at 5.67.

In turn, B15 had an inhibition constant (Ki) of 2.45 µM and a pKI of 5.61.

Molecule B16 gave a Ki of 2.75 µM and a pKI of 5.56.

Molecule B17 had a Ki of 0.324 µM and a pKI of 6.49.

Molecule B18 yielded an inhibitory constant (Ki) of 14.5 µM and a pKI of 4.84.

For B19, the affinity corresponds to a Ki of 1.25 µM and the pKI worked out at 5.9.

Another experiment shares this target. Kind of experiment: FP competition; KI at RAMP1-CLR ECD over KI at RAMP2-CLR ECD.
For the molecule B14, the “Receptor Selectivity (fold)” value was 5 fold.

A further experiment has the same target. Kind of experiment: AlphaLISA/AlphaScreen competition, RAMP2-CLR ECD. A general note: Alpha assays give light when donor and acceptor beads are brought close together.
As to B6, the half-inhibitory concentration (IC50) fell in the range of 5 to 15 µM.

The target is the same in the next experiment. The experiment in a line: AlphaLISA competition, Biotin-AM probe.
On to B13, for which the “fold increase in affinity (against AM(37-52)NH2)” value was around 100 fold.

One may read the Ki as the equilibrium dissociation constant of an inhibitor or competing ligand from its target. A high value points to lower affinity. What is called IC50 is the concentration at which inhibition is half-maximal.
